US6323185, “Anti-viral guanosine-rich oligonucleotides and method of treating HIV” (The United States of America as represented by the …)

Legend:
[1] = biological target: CD4 (UniProt P01730 P01730:26-396); assay: competition; ID50, oligo with immobilized CD4; settings: tags: immobilized, gp120 capture ELISA kit
[2] = biological target: T1, gp120 envelope glycoprotein (HIV-1, UniProt P04578 P04578:33-511); assay: competition; ID50, inhibition of gp120 binding to CD4, oligo preincubated with gp120; settings: tags: gp120 capture ELISA kit
[3] = biological target: T1, gp120 envelope glycoprotein; assay: competition; ID50, gp120/CD4 ELISA; PD oligos did not inhibit V3 Mab binding; settings: tags: gp120 capture ELISA kit
[4] = biological target: HIV-1 integrase wild-type (IN1-288) (HIV-1, UniProt P12497 P12497:1148-1435); assay: UV crosslinking, about 39 kDa complex; not competed by excess T30177 added after preincubation; settings: label: 5'-32P
[5] = biological target: HIV-1 integrase wild-type (IN1-288) (HIV-1, UniProt P12497 P12497:1148-1435); assay: inhibition; 3'-processing; strand transfer 0.046 uM; Table D-1 79 nM / 49 nM; FIG. 30 55 nM; Mn; settings: intramolecular G4 (G-octet)
[6] = biological target: T2, HIV-1 reverse transcriptase (HIV-1 (BH10), UniProt P03366;P03366 P03366:600-1159,P03366:600-1039); assay: inhibition; gapped duplex DNA template; duplicate 10.0 uM; settings: intramolecular G4 (G-octet)
[7] = biological target: T2, HIV-1 reverse transcriptase; assay: inhibition; primed ribosomal RNA template; duplicate 0.36 uM; settings: intramolecular G4 (G-octet)
[8] = biological target: T2, HIV-1 reverse transcriptase; assay: inhibition; poly(rA).p(dT)12-18 template; duplicate 4.2 uM; settings: intramolecular G4 (G-octet)

B1: I100-00 (ssDNA)
DNA: GTTGGGGGTTGTTGGTGGGGTGGTGG
modifications: phosphodiester
- IC50 [1]: 18 µM
- IC50 [2]: 3.5 µM

B2: I100-07 (ssDNA)
DNA: GTGGTGGGTGGGTGGGTGGTGGGTGGTGGTTGTGGGTGGGTGGTG
modifications: phosphodiester
- IC50 [1]: 4.25 µM
- IC50 [3]: 0.8 µM

B3: HIV-1 U5 LTR 21-mer duplex (AE118/AE117) (dsDNA)
DNA 1: GTGTGGAAAATCTCTAGCAGT
DNA 2: ACTGCTAGAGATTTTCCACAC
- binding result [4]: binds

B4: T30177 (AR177, Zintevir) (ssDNA)
DNA: GTGGTGGGTGGGTGGGT
modifications: PS at first and last internucleoside linkages, 3'-OH
- IC50 [5]: 0.092 µM
- IC50 [6]: 8 µM
- IC50 [7]: 1.2 µM
- IC50 [8]: 11 µM
